Data on 94 variants can be found in the supplement of paper PMC10567573.

The chains are these.
B1: FAM164C (parent)
chain: YPHCTGISQQDPESDSQGQGNGLF
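Further: lentivirally expressed fusions sorted by FACS into six bins by GFP to DsRed ratio, PSI derived from sequencing read proportions per bin multiplied by bin number.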

In the data set the parent is B1. Briefly: protein stability index of a GFP-peptide fusion (GPS, HEK-293T) (PSI 1-6); higher = more stable. As to conditions: c terminus: a fixed tail appended.
Take YPHCTGISQQDPESISQGQGNGLF [D15I]: the protein stability index amounted to 2.9.

Consider YPHCTGISQQDPESTSQGQGNGLF [D15T], for which the protein stability index was 2.95.

For the variant YPHCTGISQQDPESHSQGQGNGLF [D15H], the protein stability index was determined as 3.66.

For YPHCTGISQQDPESVSQGQGNGLF [D15V], the protein stability index came to 3.51.

As for YPHCTGISQQDPESLSQGQGNGLF [D15L], the protein stability index came out at 2.8.

For YPHCTGISQQDPESRSQGQGNGLF [D15R], the protein stability index was 3.54.

Consider YPHCTGISQQDPESNSQGQGNGLF [D15N], for which the protein stability index stood at 3.84.

With YPHCTGISQQDPESYSQGQGNGLF [D15Y], the protein stability index was 3.23.

On to YPHCTGISQQDPESMSQGQGNGLF [D15M], for which the protein stability index is 2.9.

As for YPHCTGISQQDPESQSQGQGNGLF [D15Q], the protein stability index was 3.44.

With YPHCTGISQQDPESKSQGQGNGLF [D15K], the protein stability index was found to be 3.64.

YPHCTGISQQDPESCSQGQGNGLF [D15C]: the protein stability index turned out to be 2.79.

Consider YPHCTGISQQDPESSSQGQGNGLF [D15S], for which the protein stability index was found to be 3.73.

YPHCTGISQQDPESESQGQGNGLF [D15E]: the protein stability index was 4.07.

Turning to YPHCTGISQQDPESASQGQGNGLF [D15A], the protein stability index turned out to be 3.53.

Regarding YPHCTGISQQDPESPSQGQGNGLF [D15P], the protein stability index came to 3.46.

As to YPHCTGISQQDPESFSQGQGNGLF [D15F], the protein stability index was 2.94.

As for YPHCTGISQQDPESWSQGQGNGLF [D15W], the protein stability index is 2.63.

YPHCTGISQQQPESDSQGQGNGLF [D11Q]: the protein stability index was 3.73.

As to YPHCTGISQQHPESDSQGQGNGLF [D11H], the protein stability index was 3.12.

Take YPHCTGISQQGPESDSQGQGNGLF [D11G]: the protein stability index came out at 3.18.

Turning to YPHCTGISQQYPESDSQGQGNGLF [D11Y], the protein stability index was found to be 2.94.

For YPHCTGISQQWPESDSQGQGNGLF [D11W], the protein stability index amounted to 2.32.

On to YPHCTGISQQVPESDSQGQGNGLF [D11V], for which the protein stability index was 3.5.

With YPHCTGISQQTPESDSQGQGNGLF [D11T], the protein stability index came out at 3.17.

YPHCTGISQQIPESDSQGQGNGLF [D11I]: the protein stability index came to 3.1.

On to YPHCTGISQQEPESDSQGQGNGLF [D11E], for which the protein stability index was found to be 4.2.

Consider YPHCTGISQQAPESDSQGQGNGLF [D11A], for which the protein stability index is 3.66.

Regarding YPHCTGISQQKPESDSQGQGNGLF [D11K], the protein stability index worked out at 3.85.

Turning to YPHCTGISQQSPESDSQGQGNGLF [D11S], the protein stability index came to 3.58.

For YPHCTGISQQPPESDSQGQGNGLF [D11P], the protein stability index worked out at 3.85.

Regarding YPHCTGISQQMPESDSQGQGNGLF [D11M], the protein stability index is 3.41.

Regarding YPHCTGISQQFPESDSQGQGNGLF [D11F], the protein stability index came to 2.96.

YPHCTGISQQRPESDSQGQGNGLF [D11R]: the protein stability index was 3.29.

As for YPHCTGISQQNPESDSQGQGNGLF [D11N], the protein stability index was found to be 3.62.

YPHCTGISQQLPESDSQGQGNGLF [D11L]: the protein stability index amounted to 3.37.

For YPHCTGISQQCPESDSQGQGNGLF [D11C], the protein stability index was determined as 3.15.

For the variant YPHCTGISQQDPISDSQGQGNGLF [E13I], the protein stability index came out at 3.21.

As to YPHCTGISQQDPPSDSQGQGNGLF [E13P], the protein stability index came to 3.51.

Take YPHCTGISQQDPRSDSQGQGNGLF [E13R]: the protein stability index was 2.93.

For YPHCTGISQQDPDSDSQGQGNGLF [E13D], the protein stability index is 3.87.

Regarding YPHCTGISQQDPMSDSQGQGNGLF [E13M], the protein stability index was determined as 3.21.

As for YPHCTGISQQDPASDSQGQGNGLF [E13A], the protein stability index was found to be 3.46.

YPHCTGISQQDPHSDSQGQGNGLF [E13H]: the protein stability index amounted to 3.4.

YPHCTGISQQDPWSDSQGQGNGLF [E13W]: the protein stability index amounted to 1.9.

On to YPHCTGISQQDPQSDSQGQGNGLF [E13Q], for which the protein stability index worked out at 3.31.

Turning to YPHCTGISQQDPYSDSQGQGNGLF [E13Y], the protein stability index was 2.97.

With YPHCTGISQQDPGSDSQGQGNGLF [E13G], the protein stability index amounted to 3.38.

Consider YPHCTGISQQDPTSDSQGQGNGLF [E13T], for which the protein stability index was found to be 3.15.

Regarding YPHCTGISQQDPCSDSQGQGNGLF [E13C], the protein stability index stood at 3.34.

For the variant YPHCTGISQQDPNSDSQGQGNGLF [E13N], the protein stability index turned out to be 3.23.

With YPHCTGISQQDPFSDSQGQGNGLF [E13F], the protein stability index came to 2.44.

For the variant YPHCTGISQQDPSSDSQGQGNGLF [E13S], the protein stability index amounted to 3.08.

For the variant YPHCTGISQQDPLSDSQGQGNGLF [E13L], the protein stability index was 2.81.

As to YPHCTGISQQDPVSDSQGQGNGLF [E13V], the protein stability index worked out at 3.66.

For the variant YPHCTGISQQDPKSDSQGQGNGLF [E13K], the protein stability index is 3.28.

For the variant YPHCTGISQQDPETDSQGQGNGLF [S14T], the protein stability index was 3.71.

On to YPHCTGISQQDPEWDSQGQGNGLF [S14W], for which the protein stability index turned out to be 3.13.

YPHCTGISQQDPEKDSQGQGNGLF [S14K]: the protein stability index was 4.23.

As to YPHCTGISQQDPENDSQGQGNGLF [S14N], the protein stability index was found to be 3.89.

For YPHCTGISQQDPEMDSQGQGNGLF [S14M], the protein stability index came to 3.4.

With YPHCTGISQQDPEPDSQGQGNGLF [S14P], the protein stability index worked out at 4.28.

YPHCTGISQQDPEHDSQGQGNGLF [S14H]: the protein stability index turned out to be 3.73.

For the variant YPHCTGISQQDPEQDSQGQGNGLF [S14Q], the protein stability index was determined as 3.93.

Regarding YPHCTGISQQDPECDSQGQGNGLF [S14C], the protein stability index was determined as 3.54.

Regarding YPHCTGISQQDPEIDSQGQGNGLF [S14I], the protein stability index was 3.25.

For the variant YPHCTGISQQDPEVDSQGQGNGLF [S14V], the protein stability index was 4.3.

Regarding YPHCTGISQQDPEYDSQGQGNGLF [S14Y], the protein stability index was found to be 3.27.

For the variant YPHCTGISQQDPERDSQGQGNGLF [S14R], the protein stability index was 3.79.

With YPHCTGISQQDPELDSQGQGNGLF [S14L], the protein stability index was 3.77.

Turning to YPHCTGISQQDPEGDSQGQGNGLF [S14G], the protein stability index came out at 3.74.

On to YPHCTGISQQDPEDDSQGQGNGLF [S14D], for which the protein stability index stood at 4.2.

On to YPHCTGISQQDPEEDSQGQGNGLF [S14E], for which the protein stability index is 3.84.

Consider YPHCTGISQQDPEFDSQGQGNGLF [S14F], for which the protein stability index stood at 2.73.

For YPHCTGISQQDPEADSQGQGNGLF [S14A], the protein stability index came out at 3.86.

With YPHCTGISQQDPESDSQTQGNGLF [G18T], the protein stability index was 3.41.

For YPHCTGISQQDPESDSQFQGNGLF [G18F], the protein stability index turned out to be 2.54.

On to YPHCTGISQQDPESDSQMQGNGLF [G18M], for which the protein stability index is 3.19.

Regarding YPHCTGISQQDPESDSQPQGNGLF [G18P], the protein stability index turned out to be 3.83.

With YPHCTGISQQDPESDSQHQGNGLF [G18H], the protein stability index is 3.74.

As for YPHCTGISQQDPESDSQCQGNGLF [G18C], the protein stability index is 3.9.

Turning to YPHCTGISQQDPESDSQVQGNGLF [G18V], the protein stability index turned out to be 3.32.

Consider YPHCTGISQQDPESDSQAQGNGLF [G18A], for which the protein stability index turned out to be 3.83.

As for YPHCTGISQQDPESDSQEQGNGLF [G18E], the protein stability index was found to be 4.19.

As to YPHCTGISQQDPESDSQKQGNGLF [G18K], the protein stability index came to 3.5.

In the case of YPHCTGISQQDPESDSQLQGNGLF [G18L], the protein stability index was 3.42.

In the case of YPHCTGISQQDPESDSQRQGNGLF [G18R], the protein stability index came to 3.83.

As for YPHCTGISQQDPESDSQYQGNGLF [G18Y], the protein stability index stood at 3.

YPHCTGISQQDPESDSQDQGNGLF [G18D]: the protein stability index turned out to be 3.67.

For the variant YPHCTGISQQDPESDSQIQGNGLF [G18I], the protein stability index is 3.32.

With YPHCTGISQQDPESDSQNQGNGLF [G18N], the protein stability index amounted to 3.58.

Take YPHCTGISQQDPESDSQSQGNGLF [G18S]: the protein stability index was determined as 3.77.

As to YPHCTGISQQDPESDSQQQGNGLF [G18Q], the protein stability index came to 3.72.

On to YPHCTGISQQDPESDSQWQGNGLF [G18W], for which the protein stability index is 2.62.
